Measurements: publication doi:10.1101/2025.01.28.635075
Several values for one entry are separate records, joined by “and”; a condition that tells them apart may be missing. Identical values can stand only once.

Columns and labels:
[1] = molecular target: MMOH protomer (αβγ) from Methylosinus sporium 5 (Methylosinus sporium 5); test: cryo-EM structure
[2] = molecular target: soluble methane monooxygenase hydroxylase (MMOH), α2β2γ2, from Methylosinus sporium 5 (Methylosinus sporium 5); test: cryo-EM structure

| Substance | stoichiometry N [1] | stoichiometry N [2] |
| --- | --- | --- |
| MMOH protomer (αβγ) from Methylosinus sporium 5 (from UniProt A0ACH3GMT4 1-520) (complex) | 2 |  |
| regulatory component of soluble methane monooxygenase (MMOB) from Methylosinus sporium 5 (natural protein) |  | 1 and 2 |
